In this experiment the target is T1, galectin-3 (Homo sapiens (assumed; ), UniProt P17931, biotin (biotinylated galectin-3)).
T1 construct: galectin-3
In words: ELISA; biotinylated galectin-3 (10 µg/mL) captured on NeutrAvidin-coated wells blocked with 3% skim milk; VHH at 800, 400 and 200 nM in solution, 30 min; detected with HRP anti-FLAG antibody; absorbance at 450 nm. The settings on record: both partners purified.

From PMC10767033 (Scientific Reports, 2024) come the findings set out here.

T1 sequence (P17931 whole entry): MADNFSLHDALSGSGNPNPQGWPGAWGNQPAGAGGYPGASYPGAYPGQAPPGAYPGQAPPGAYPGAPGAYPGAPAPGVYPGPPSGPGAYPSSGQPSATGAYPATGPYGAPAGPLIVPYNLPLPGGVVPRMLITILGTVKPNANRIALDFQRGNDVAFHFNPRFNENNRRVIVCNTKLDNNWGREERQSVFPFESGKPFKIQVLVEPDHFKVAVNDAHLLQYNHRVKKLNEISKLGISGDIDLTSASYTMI

B1: wild-type VHH (3DWT) (VHH)
VHH: QVQLVESGGGSVQAGGSLRLSCTASGGSEYSYSTFSLGWFRQAPGQEREAVAAIASMGGLTYYADSVKGRFTISRDNAKNTVTLQMNNLKPEDTAIYYCAAVRGYFMRLPSSHNFRYWGQGTQVTVSS
notes: framework 1 of the VHH of PDB 3DWT; CDR1 (13 aa) of the wild type; framework 2 of the VHH of PDB 3DWT; CDR2 (10 aa) of the wild type; framework 3 of the VHH of PDB 3DWT; CDR3 (16 aa) of the wild type; framework 4 of the VHH of PDB 3DWT; also called wild-type 3DWT; source: E. coli BL21(DE3), purified (IMAC, SEC)
Regarding B1, the binding result was “no binding (tested: 800 nM, 400 nM, and 200 nM of VHHs)”.
